Experimental data from paper PMC12644819 (Nature Communications, 2025).
Ends that are not written are not given here.

T1: LptD (E. coli, UniProt P31554 25-784, disulfide bonds Cys31-Cys724 and Cys173-Cys725)
T1 construct: LptD, E. coli outer membrane LPS transporter, β-taco domain plus 26-stranded β-barrel; called full-length LptD in contrast to the β-barrel truncation; Untagged wild-type LptD; also called full-length LptD; endogenous LptD; source: E. coli BW25113, overproduced from pLptDEM^His or pLptDE^His, or endogenous; DDM-solubilised envelope fraction; co-purified (Ni-NTA, SEC)
T1 sequence (looked up): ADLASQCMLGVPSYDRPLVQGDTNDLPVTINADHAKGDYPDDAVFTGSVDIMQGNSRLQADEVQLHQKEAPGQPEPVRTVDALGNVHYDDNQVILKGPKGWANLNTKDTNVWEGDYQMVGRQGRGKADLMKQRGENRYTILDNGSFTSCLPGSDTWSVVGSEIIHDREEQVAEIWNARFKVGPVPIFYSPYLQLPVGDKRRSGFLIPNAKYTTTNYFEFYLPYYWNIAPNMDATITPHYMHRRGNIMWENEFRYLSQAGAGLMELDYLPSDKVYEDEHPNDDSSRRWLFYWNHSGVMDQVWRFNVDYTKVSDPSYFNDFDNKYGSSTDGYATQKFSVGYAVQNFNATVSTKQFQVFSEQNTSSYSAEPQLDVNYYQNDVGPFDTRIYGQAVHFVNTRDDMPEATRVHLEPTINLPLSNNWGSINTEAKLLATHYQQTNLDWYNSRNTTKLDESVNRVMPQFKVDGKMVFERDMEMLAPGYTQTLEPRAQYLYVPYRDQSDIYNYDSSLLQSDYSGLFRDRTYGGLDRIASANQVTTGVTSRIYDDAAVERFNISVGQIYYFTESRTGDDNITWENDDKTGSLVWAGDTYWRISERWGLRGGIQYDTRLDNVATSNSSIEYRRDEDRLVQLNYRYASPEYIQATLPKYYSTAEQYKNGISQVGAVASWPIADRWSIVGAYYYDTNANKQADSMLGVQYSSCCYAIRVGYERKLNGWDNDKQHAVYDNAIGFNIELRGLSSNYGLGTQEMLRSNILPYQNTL


Legend:
LptDEM^His = target: T2, LptDEM^His (E. coli, UniProt P31554 25-784; P0ADC1 19-193; P0ADN6 20-67, lipoprotein | lipoprotein); assay: native MS; purified LptDEM^His and LptDE^His complexes; subpopulation with a mass shift of 14,301 Da; re-analysed and new spectra; settings: both partners purified
T2 construct: LptD, E. coli; LptE, E. coli; LptM, E. coli; source: E. coli BW25113 wild type, from pLptDEM^His; purified (Ni-NTA, SEC) in DDM; copies: 1 + 1 + 1
T2 sequence (P0ADC1 19-193, one chain of several): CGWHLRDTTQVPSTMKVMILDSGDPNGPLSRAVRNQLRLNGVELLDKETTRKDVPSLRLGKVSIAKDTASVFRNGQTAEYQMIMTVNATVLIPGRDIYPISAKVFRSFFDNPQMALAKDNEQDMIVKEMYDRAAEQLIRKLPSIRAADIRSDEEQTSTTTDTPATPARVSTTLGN

LptDE^His = target: T3, LptDE^His (E. coli, UniProt P31554 25-784; P0ADC1 19-193, lipoprotein); assay: as above; settings: both partners purified
T3 construct: LptD, E. coli; LptE, E. coli; also called core translocon; the translocon; source: E. coli BW25113 (ΔlptM for native MS), from pLptDE^His or derivatives of pLptDME^His; Ni-NTA (and SEC) in DDM; copies: 1 + 1
T3 sequence (P0ADC1 19-193, one chain of several): as above

LptD = target: T1, LptD; assay: affinity purification with mass spectrometry; nickel-affinity chromatography and gel filtration of LptM^His (wild-type cells) or LptE^His (ΔlptM cells) from DDM-solubilised envelope; SDS-PAGE with Coomassie; ~15 kDa band identified by bottom-up mass spectrometry; settings: partners not purified

Row | Binder | stoichiometry N (LptDEM^His) | stoichiometry N (LptDE^His) | binding result (LptD)
1 | LptY (natural protein, E. coli, UniProt P31063 16-137, looked up, lipoprotein, LptY (formerly YedD), E. coli OM lipoprotein of ~14 kDa; an AlphaFold2 model was docked; also called YedD; source: endogenous, E. coli BW25113; co-purified with LptDEM^His or LptDE^His (Ni-NTA, SEC)) CAEVENYNNVVKTPAPDWLAGYWQTKGPQRALVSPEAIGSLIVTKEGDTLDCRQWQRVIAVPGKLTLMSDDLTNVTVKRELYEVERDGNTIEYDGMTMERVDRPTAECAAALDKAPLPTPLP | 1 LptD:LptE:LptM:LptY | 1 LptD:LptE:LptY | –
2 | CGLKGPLYFPPADKNAPPPTKPVETQTQSTVPDKNDRATGDGPSQVNY (natural protein, E. coli, UniProt P0ADN6 20-67, looked up, also: lipoprotein, acyl tails on N-terminal Cys, His-tagged (LptM^His), LptM, E. coli lipoprotein; source: E. coli BW25113, from pLptDEM^His or pLptD^β-barrelEM^His; DDM-solubilised envelope fraction; purified (Ni-NTA, SEC)) [LptM^His] | – | – | binds
